From patent US12077763B2, “RNA-based control of powdery mildew” (Greenlight Biosciences, Inc., priority 2021, dated 2024) come the findings set out here.

The chains are these.
B1: GS2655 (nucleic acid)
sense: UGCCAUUCGCGUAUUUUUCUAUUCGAAGACACUCAGUCCUUCAGAGAUUAUUCCAGAAUUGUAUCCUCAAUUACAAUCUUAUUUUUACACAAUACCUCUUUCCCCUAAAUAAAGUACUACAAUGUCAAAUUCCGAAUUAGCAGUUUCGUAUGCUGCCCUUAUCCUCGCAGAUGACGGGGUUGACGUCACAGCAGAUAAGCUACAAUCAUUAAUCAAGGCUGCUGGUAUUGAUGAUGUUGAGCCAAUUUGGACUACUUUAUUUGCCAAGGCUCUCGAUGGCAAAGAUGUGAAAGAUAUGCUCCUGAAUGUAG
antisense: CUACAUUCAGGAGCAUAUCUUUCACAUCUUUGCCAUCGAGAGCCUUGGCAAAUAAAGUAGUCCAAAUUGGCUCAACAUCAUCAAUACCAGCAGCCUUGAUUAAUGAUUGUAGCUUAUCUGCUGUGACGUCAACCCCGUCAUCUGCGAGGAUAAGGGCAGCAUACGAAACUGCUAAUUCGGAAUUUGACAUUGUAGUACUUUAUUUAGGGGAAAGAGGUAUUGUGUAAAAAUAAGAUUGUAAUUGAGGAUACAAUUCUGGAAUAAUCUCUGAAGGACUGAGUGUCUUCGAAUAGAAAAAUACGCGAAUGGCA
B2: GS1892: dsRNA trigger SEQ ID NO 148; gene target COP9 signalosome complex subunit 5 (nucleic acid)
chain: CGAGCTCTTATAGTGTGAGATCTGCAGCGAGTAGTATCTACTACTATGGGCACCGAAATCTTCGATCTTAGATAGTGGTATCGTTTGATAACCATCGTTAGTTGACGATTCTGCCGCCTTGTAGTTTTCTGGATAGGTCCGGAATGCACCTATTTCAACCTTACCAGCTGAGATGGTGCGATCTGGGTCAATGACAACCGCAAGAAAAGGATCCGAGAATGATTGCTGTATATGCTGTGTGCTAACATCTATGCCACTGAGCCAGCAGCCATAGCCTGGATGACTGTGGTACCACCCCACTGCATTCTCTAACTTTCCTTGCTCTCGACATGCCTGGAGATAACGAACCATATATTCATTTGCCTCATCTTGGGCATTAACACGTGTCTCCGTGCCTTC
B3: GS2384 (nucleic acid)
sense: AUGGGAUUUACACCGAUCAACUUUACAUUUUACUGGGCACCUCUACCUUGGAAUCGUGCUCGUGAUCAUGCCCAAAGAACUGUUGCUAGGACUUAUAUGAAUAUAAUCCAAGCUCGUAGAGAAGAGAAAAGAAGCGGUGAGAAUAAGCAUGAUAUAAUGUGGGAGUUGAUGCGUUCCACUUAUAAAGACGGGACUCCGGU
antisense: ACCGGAGUCCCGUCUUUAUAAGUGGAACGCAUCAACUCCCACAUUAUAUCAUGCUUAUUCUCACCGCUUCUUUUCUCUUCUCUACGAGCUUGGAUUAUAUUCAUAUAAGUCCUAGCAACAGUUCUUUGGGCAUGAUCACGAGCACGAUUCCAAGGUAGAGGUGCCCAGUAAAAUGUAAAGUUGAUCGGUGUAAAUCCCAU
B4: GS1891: dsRNA trigger SEQ ID NO 122; gene target eka-like_protein (nucleic acid)
chain: CACCAACTGGGTGTCAGTACTAATACCAACAGTTCCAGCTGTTTTACATAAAGAACAAGGAGTAGTTGAAGTGAGCAACAGCATGCTTGCTGATGAGGTGGAACGTGTCTGCTCTGTGCGGCCAGCTCACATAAAGCTTTATGGAAGAAATAAACCTGAGGCACCGTATCGAACATGGATGGCTTTCTTCCCGAAAGCTCCACGCGGCACTTTTAAAGTGTTCGACGAATCTGGAATTGCGAGCGAGGTCTTTTAAAAAGCAGCAACCTCTCGAATTTTGTAAAAGATGCAATGGGCACCACTCTATTAAAAATTGCTCAAGGGCTCCTTCGTGCGGAAATTGTGGCTCGACCAATCATACCGAGGATTTATGTATGGCCGCAACTAAGTGTAGAAATTGTGG
B5: GS2382 (nucleic acid)
sense: AAAAGUUAUGGCGGAAAUCACUAUAUAUACUGCUUCACAUGCCUUACAAGGAGAAGAGGUCCGUGAGAAUUUUGACUCAUCUUUUGCCGCUCUUUAUCAUGAUCUUGAUAUGGGAUUUACACCGAUCAACUUUACAUUUUACUGGGCACCUCUACCUUGGAAUCGUGCUCGUGAUCAUGCCCAAAGAACUGUUGCUAGGA
antisense: UCCUAGCAACAGUUCUUUGGGCAUGAUCACGAGCACGAUUCCAAGGUAGAGGUGCCCAGUAAAAUGUAAAGUUGAUCGGUGUAAAUCCCAUAUCAAGAUCAUGAUAAAGAGCGGCAAAAGAUGAGUCAAAAUUCUCACGGACCUCUUCUCCUUGUAAGGCAUGUGAAGCAGUAUAUAUAGUGAUUUCCGCCAUAACUUUU
B6: GS1894: dsRNA trigger SEQ ID NO 123; gene target eka-like_protein (nucleic acid)
chain: AAAGGTAGTGGCTCTGGGTCTGGAAAAGGGAAAAATGTAGAAAAGAATGTTGCTGTTGCAACCCCTAAATTACCAAAACCTCCCCAAACCTCACTGAACACATGGGTTACTGTGGCTCGAAATGGTCAGAAGAAGGCCCGAGTTCTTCAAAATAATAATATACACACCACCCCGATGAGTAAAATAAGACCACGAGTATCAATTGTGGAGAGAGCCTCAGCTGCTCCGACAGATAATAGGCTGTTTCTCCGTCTCCCCCAAGAACATGAATGGCGAAAGCTTTCTCCTGCTGAAATACGTAAGGTAATTTTAAAGAAACTTTCAATCTCACCCGTATTGGTTGGGAATACGTGAGGTAATTGTACATTGGTTGGGAAAATTAA
B7: GS1890: dsRNA trigger SEQ ID NO 154; gene target Pre-rRNA-processing protein FHL1 (nucleic acid)
chain: TAAAGGAATTGAAGGAGGAAAATTTGATGATGGATTGATAACAGACGGTACTTGCCCATTTATACGAGGTGGTAGCTGATAATTTGAAAAGTGACCTAATTGATTATGTGAAGATTCCATCGGGGCCCTGTACGTAAAGTGGCCTGCTATCTTTGAGAGACCATTTTGATAAGGAGTTTGTTGCAGACCTAGATAAGATTGAGGAGGCGGAGTAGCTCTCCTTTTTTTCTCTTTTTCAATAGATATACCGTCAACGATTCCCCAAGTCCAGCCTTTTCCATCCTTTTCAACTTTGCGGAAAGCATGGTGTTGTGATAGATTGTGACGAACACTACTTTGCCAGCCTAAGGTTTGAGTTTTAAATCTGAAATATGGGTATTTCCTGTATATAGCTCGGTAGATGT
B8: GS1893: dsRNA trigger SEQ ID NO 124; gene target C2H2 zinc finger domain (nucleic acid)
chain: CACAACCTTGGGTCTGTCCTTAATTTTTCCACCAAATAATCAATCCTACGACCATTGCGTGGGACAATAATTCAATAAGGAAAATTTAAATAAAAAAAAATTTAAAAAAAAAGAAAAAGAAAAAATTTAATTAAAATCCATAATAAATACTCTGTTAATATTTACAAGGGAATCTTAATTATTCAACCAACCAATTATCTCGGAAAAGGATAAAGGAGTTGGTTTACATCTAACGATTAGAAAGCCTTTGAACCTAGTATGCCCAATTCTCTTCATATGGATACCCAGTTTCACTCAAACAATATGAATAGCAGTACAGCGAATTATAGTTCATTGCCTAGCATTTCGCCTCATCAACTGCAGCAGCAAAATCAAATGCCGACTCATATTCT
B9: ES46: dsRNA trigger SEQ ID NO 110; gene target Hypotethical effector (nucleic acid)
DNA: TTGGAAGAACCGCCAGAAAACCCAATCAGATACCGATCTCTACTCGGATCATCATTTCACTTCGCAACATGCAATTAACGGTTATGTACCTTCTATAGGCTTTGAATCCGATGGTTATGGGATTAGTAAGAGATCTAATCGTAAAACTGTTCATGGATATTACTGTGGGAGCTCAAAACATGAGCAGCATTTTTATGAGCAGGACTATATTAAAATATATACATGTCAAACATAATGCAAACTTAATTCCATATAGTTAACTGAAATGGTCATTTTTTCACAGCTTTAACTCAATTCCTTTTGAAGAGTGATAACTTTTACTTGCAATTCCTAATTAAAATAAGAGCACAAGCCTTAATTTTTGGATCTAAAATATCAATGCCAACCCCTTGTGCACTGTTGGTAGTGAAAATCTTCGTTATTTGTGACAACATCCACAATCTCGCACTGCGTATTGATA
B10: GS1895: dsRNA trigger SEQ ID NO 125; gene target eka-like_protein (nucleic acid)
chain: ACGCGCGGCTAATGATATGCACAATGCACGGTGATTAGTAGCATAGATAGTACATTAGCGACTTTTACAAAAGAAGTAGAGATAGAAGAGGCTGTAGCTTTCAAAGCGTACCTCAAACTTGCAATAGCAAACTTTGCAGCAGTAGATTCGTCCCCTCCTCCACCTCGTGTCCCATTACATACAAGACCGAATAAAGGTAACGGAAATGATAGCAGTAAAGGGAAAAGTAAAGAGAAAAACTTGTCAAAGATAGCAGTCGCAATACCTCGTATTGCTTGTAATCGAATTATCATGGGCCACAGTAATCAAAATCCAAATCTGGGTACGATCAAAGAAATAGAATTACCAAAAATTATTAAAAATATGATATA

The first data set relates to E. necator. The data set is described as follows: Leaf disc assay, dry inoculum (settling tower), decrease in disease severity / hyphal growth (Example 2). Conditions: decrease in disease severity (hyphal growth) relative to untreated control; time point 1 (untreated control hyphal growth ≥50%); value ± SE.
Take B1: the “% decrease =/− SE TP1” value was 26 ± 9%.
Still for that read-out and setting: in the case of B2 it was 8 ± 5%; in that of B3, 20 ± 0%.
The same measure, in the same setting: under B4 stands 3 ± 7%.
Regarding B5, the “% decrease =/− SE TP1” value turned out to be 17 ± 0%.
Take B6: the “% decrease =/− SE TP1” value was determined as 4 ± 6%.
On the same count and under the same terms, under B7 stands 16 ± 5%; under B8, 5 ± 5%; under B9, 6 ± 0%.

The same data set, now with this note: decrease in disease severity (hyphal growth) relative to untreated control; time point 2; value ± SE.
For B1, the “% decrease =/− SE TP2” value turned out to be 9 ± 9%.
For B2, the “% decrease =/− SE TP2” value came out at 3 ± 6%.
As to B3, the “% decrease =/− SE TP2” value came to 8 ± 0%.
Same read-out and setting: under B4 stands 4 ± 7%.
Same read-out and setting: in the case of B5 it was 4 ± 0%; in that of B10, 4 ± 7%.
Still for that read-out and setting: under B6 stands 0 ± 6%.
In the case of B7, the “% decrease =/− SE TP2” value is 4 ± 5%.
Regarding B9, the “% decrease =/− SE TP2” value amounted to 5 ± 0%.
